# From patent EP4545091A1 (priority 2023, dated 2025)
# Target: TMPRSS2 on cells (UniProt O15393)
# Assay: cell-based or functional assay
substance,measurement,value
Trypstatin (AMBP 284-344) (peptide),"IC50, MERS-CoV spike pseudoparticle entry into CaCo-2 cells (luciferase)",78 nM
same,"IC50, SARS-CoV spike pseudoparticle entry into CaCo-2 cells (luciferase)",31 nM
